Assay results published in patent US20240287166A1 (published 2024).

Target: T1, CSP on P. falciparum sporozoites (Plasmodium falciparum, UniProt P19597 19-374)
T1 construct: whole, on cells; also called P. falciparum sporozoites, which present CSP in its native conformation
Assay: sporozoite ELISA, mouse sera Day 7 (FIG. 6D)

T1 sequence (P19597 19-374): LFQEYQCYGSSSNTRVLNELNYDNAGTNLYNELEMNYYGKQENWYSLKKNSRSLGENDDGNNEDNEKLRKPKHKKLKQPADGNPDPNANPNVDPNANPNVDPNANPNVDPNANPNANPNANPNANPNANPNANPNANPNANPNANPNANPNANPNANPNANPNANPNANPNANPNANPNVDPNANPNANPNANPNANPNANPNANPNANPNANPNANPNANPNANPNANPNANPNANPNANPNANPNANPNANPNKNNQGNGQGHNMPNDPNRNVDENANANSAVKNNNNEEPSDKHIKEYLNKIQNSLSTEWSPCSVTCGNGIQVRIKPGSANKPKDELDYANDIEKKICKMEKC

B1: 10e DMAb-2 (antibody, human IgG1, lambda, V domains shown)
VH: QVQLVESGGGVVQPGRSLRLSCAASGFAFSNYGMHWVRQAPGKGLEWVAVIWHDGSLKYYTQSVKGRFTISRDNSKNTLYLQMNSLRAEDTAVYYCTVWYLETPDDGFDIWGQGTMVTVSS
VL: QLVLTQPPSASASLGVSVTLTCTLSHGHTSKAIAWHQQQPGKGPRYLMKVNSDGSHTKGAAVPDRFSGSTSGAERHFTISNLQSDDEADYYCQAWDSGIWVFGGGTKLTVLG
notes: also called MGU10-based engineered DMAb 2; 10e DMAb-2 (MGU10 VH-1 / MGU10 VL)
Question: Does B1 bind?
Answer: binds
